Measured values: the supplement of paper PMC9112550, “Optimization of the antimicrobial peptide Bac7 by deep mutational scanning” (BMC Biology, 2022)

Tested on: Escherichia coli TOP10
Assay: shrunken log2 fold change of peptide-encoding DNA abundance (4.5 h post-induction vs induction); higher = less antimicrobial activity (less host growth inhibition)
Settings: time post-induction: 4.5 h; library: site-saturation at positions 5, 18, 19, 20
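Further: peptides expressed intracellularly from a pBAD plasmid library in pooled LB shake-flask culture, induced with 0.3% L-arabinose, DNA abundance read by NGS, three biological replicates, DESeq2 with apeglm shrinkage.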

In the case of RRIRKRPPRLPRPRPRPCRVPRP, the “shrunken log2 fold change” value is reported as 0.0931.

With RRIRKRPPRLPRPRPRPCSFPRP the “shrunken log2 fold change” value was -0.397.

In the case of RRIRKRPPRLPRPRPRPCVLPRP, the “shrunken log2 fold change” value is reported as 0.0725.

In the case of RRIRKRPPRLPRPRPRPDACPRP, the “shrunken log2 fold change” value is reported as 0.00649.

For RRIRKRPPRLPRPRPRPDAIPRP, the “shrunken log2 fold change” value was 0.889.

For RRIRKRPPRLPRPRPRPDCDPRP, the “shrunken log2 fold change” value was 0.095.

With RRIRKRPPRLPRPRPRPDCLPRP the “shrunken log2 fold change” value was -0.116.

With RRIRKRPPRLPRPRPRPDDIPRP the “shrunken log2 fold change” value was 0.0454.

With RRIRKRPPRLPRPRPRPDDMPRP the “shrunken log2 fold change” value was 2.74.

With RRIRKRPPRLPRPRPRPDDNPRP the “shrunken log2 fold change” value was 1.02.

RRIRKRPPRLPRPRPRPDGDPRP was tested, and the “shrunken log2 fold change” value was 3.21.

In the case of RRIRKRPPRLPRPRPRPDGVPRP, the “shrunken log2 fold change” value is reported as 0.154.

For RRIRKRPPRLPRPRPRPDGYPRP, the “shrunken log2 fold change” value was -0.0936.

In the case of RRIRKRPPRLPRPRPRPDIAPRP, the “shrunken log2 fold change” value is reported as 1.

With RRIRKRPPRLPRPRPRPDKFPRP the “shrunken log2 fold change” value was 0.126.

In the case of RRIRKRPPRLPRPRPRPDKRPRP, the “shrunken log2 fold change” value is reported as -0.0063.

With RRIRKRPPRLPRPRPRPDLLPRP the “shrunken log2 fold change” value was 0.237.

RRIRKRPPRLPRPRPRPDLPPRP was tested, and the “shrunken log2 fold change” value was 0.222.

For RRIRKRPPRLPRPRPRPDMFPRP, the “shrunken log2 fold change” value was -0.258.

For RRIRKRPPRLPRPRPRPDMIPRP, the “shrunken log2 fold change” value was 0.013.

RRIRKRPPRLPRPRPRPDNHPRP was tested, and the “shrunken log2 fold change” value was -0.715.

In the case of RRIRKRPPRLPRPRPRPDNKPRP, the “shrunken log2 fold change” value is reported as -0.119.

With RRIRKRPPRLPRPRPRPDNNPRP the “shrunken log2 fold change” value was 0.0165.

With RRIRKRPPRLPRPRPRPDQRPRP the “shrunken log2 fold change” value was 0.458.

In the case of RRIRKRPPRLPRPRPRPDRAPRP, the “shrunken log2 fold change” value is reported as 0.115.

For RRIRKRPPRLPRPRPRPDTCPRP, the “shrunken log2 fold change” value was 0.0482.

RRIRKRPPRLPRPRPRPDVHPRP was tested, and the “shrunken log2 fold change” value was -0.00151.

For RRIRKRPPRLPRPRPRPDVMPRP, the “shrunken log2 fold change” value was -0.0462.

In the case of RRIRKRPPRLPRPRPRPDWLPRP, the “shrunken log2 fold change” value is reported as 0.308.

In the case of RRIRKRPPRLPRPRPRPEAHPRP, the “shrunken log2 fold change” value is reported as 0.151.

For RRIRKRPPRLPRPRPRPECDPRP, the “shrunken log2 fold change” value was 3.35.

With RRIRKRPPRLPRPRPRPECPPRP the “shrunken log2 fold change” value was 0.306.

With RRIRKRPPRLPRPRPRPEDGPRP the “shrunken log2 fold change” value was 1.9.

For RRIRKRPPRLPRPRPRPEDYPRP, the “shrunken log2 fold change” value was 1.15.

For RRIRKRPPRLPRPRPRPEETPRP, the “shrunken log2 fold change” value was 2.19.

With RRIRKRPPRLPRPRPRPEFPPRP the “shrunken log2 fold change” value was 0.0804.

With RRIRKRPPRLPRPRPRPEGYPRP the “shrunken log2 fold change” value was 0.0317.

For RRIRKRPPRLPRPRPRPEHDPRP, the “shrunken log2 fold change” value was 0.169.

For RRIRKRPPRLPRPRPRPEHIPRP, the “shrunken log2 fold change” value was 0.0147.

With RRIRKRPPRLPRPRPRPEHPPRP the “shrunken log2 fold change” value was 0.822.

RRIRKRPPRLPRPRPRPEIDPRP was tested, and the “shrunken log2 fold change” value was 2.84.

RRIRKRPPRLPRPRPRPEIGPRP was tested, and the “shrunken log2 fold change” value was 0.191.

In the case of RRIRKRPPRLPRPRPRPELEPRP, the “shrunken log2 fold change” value is reported as 0.0875.

With RRIRKRPPRLPRPRPRPEMFPRP the “shrunken log2 fold change” value was 0.0732.

With RRIRKRPPRLPRPRPRPEMMPRP the “shrunken log2 fold change” value was 0.113.

In the case of RRIRKRPPRLPRPRPRPENGPRP, the “shrunken log2 fold change” value is reported as 0.0267.

With RRIRKRPPRLPRPRPRPEPCPRP the “shrunken log2 fold change” value was 0.0397.

With RRIRKRPPRLPRPRPRPEPSPRP the “shrunken log2 fold change” value was 0.956.

With RRIRKRPPRLPRPRPRPESDPRP the “shrunken log2 fold change” value was 0.262.

With RRIRKRPPRLPRPRPRPESTPRP the “shrunken log2 fold change” value was 1.38.

For RRIRKRPPRLPRPRPRPEWYPRP, the “shrunken log2 fold change” value was -0.204.

With RRIRKRPPRLPRPRPRPEYEPRP the “shrunken log2 fold change” value was 0.0698.

In the case of RRIRKRPPRLPRPRPRPEYNPRP, the “shrunken log2 fold change” value is reported as 0.196.

RRIRKRPPRLPRPRPRPEYTPRP was tested, and the “shrunken log2 fold change” value was 0.0243.

RRIRKRPPRLPRPRPRPFCQPRP was tested, and the “shrunken log2 fold change” value was 0.212.

RRIRKRPPRLPRPRPRPFCSPRP was tested, and the “shrunken log2 fold change” value was -0.00787.

For RRIRKRPPRLPRPRPRPFEFPRP, the “shrunken log2 fold change” value was 0.0169.

For RRIRKRPPRLPRPRPRPFEIPRP, the “shrunken log2 fold change” value was -0.201.

In the case of RRIRKRPPRLPRPRPRPFFMPRP, the “shrunken log2 fold change” value is reported as 0.112.

RRIRKRPPRLPRPRPRPFFWPRP was tested, and the “shrunken log2 fold change” value was 1.09.
